Patent publication US20070160576A1, “IL-17A/F heterologous polypeptides and therapeutic uses thereof” (Genentech, Inc., priority 2001, published 2007)

T1: PRO20040 (human IL-17RH2 receptor) (human, UniProt Q8NAC3-3 21-452)
T1 sequence (looked up): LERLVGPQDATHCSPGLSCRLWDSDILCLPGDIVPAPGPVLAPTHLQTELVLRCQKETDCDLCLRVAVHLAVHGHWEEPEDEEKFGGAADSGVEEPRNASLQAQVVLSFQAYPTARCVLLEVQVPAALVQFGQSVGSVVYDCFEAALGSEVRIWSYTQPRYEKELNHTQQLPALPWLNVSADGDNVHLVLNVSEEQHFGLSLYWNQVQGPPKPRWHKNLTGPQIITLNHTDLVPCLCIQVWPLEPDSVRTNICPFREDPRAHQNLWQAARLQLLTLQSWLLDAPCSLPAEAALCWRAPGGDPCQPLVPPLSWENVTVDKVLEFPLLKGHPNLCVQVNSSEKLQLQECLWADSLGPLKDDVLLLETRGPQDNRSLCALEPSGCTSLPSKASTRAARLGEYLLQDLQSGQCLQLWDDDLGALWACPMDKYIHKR

T2: PRO5801 (human IL-17RH1 receptor) (Homo sapiens, UniProt Q9NRM6)
T2 sequence (Q9NRM6 18-502): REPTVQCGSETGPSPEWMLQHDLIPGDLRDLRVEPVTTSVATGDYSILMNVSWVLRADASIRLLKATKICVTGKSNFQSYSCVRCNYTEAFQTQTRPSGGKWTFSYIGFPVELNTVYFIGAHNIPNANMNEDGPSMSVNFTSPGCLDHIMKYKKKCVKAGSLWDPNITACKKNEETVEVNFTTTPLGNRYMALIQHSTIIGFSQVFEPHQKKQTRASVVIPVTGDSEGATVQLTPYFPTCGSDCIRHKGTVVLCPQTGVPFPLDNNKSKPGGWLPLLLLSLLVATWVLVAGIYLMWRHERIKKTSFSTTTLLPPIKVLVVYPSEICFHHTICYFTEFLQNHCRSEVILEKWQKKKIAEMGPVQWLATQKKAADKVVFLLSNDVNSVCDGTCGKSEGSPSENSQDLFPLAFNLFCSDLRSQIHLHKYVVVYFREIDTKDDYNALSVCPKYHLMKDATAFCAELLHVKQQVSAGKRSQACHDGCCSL

B1: PRO1122 (IL-17C ligand) (ligand, UniProt Q9P0M4 19-197, looked up)
chain: HHDPSLRGHPHSHGTPHCYSAEELPLGQAPPHLLARGAKWGQALPVALVSSLEAASHRGRHERPSATTQCPVLRPEEVLEADTHQRSISPWRYRVDTDEDRYPQKLAFAECLCRGCIDARTGRETAALNSVRLLQSLLVLRRRPCSRDGSGLPTPGAFAFHTEFIHVPVGCTCVLPRSV
B2: PRO21175 (IL-17D ligand) (ligand, UniProt Q8TAD2 16-202, looked up)
chain: AGAPRAGRRPARPRGCADRPEELLEQLYGRLAAGVLSAFHHTLQLGPREQARNASCPAGGRPADRRFRPPTNLRSVSPWAYRISYDPARYPRYLPEAYCLCRGCLTGLFGEEDVRFRSAPVYMPTVVLRRTPACAGGRSVYTEAYVTIPVGCTCVPEPEKDADSINSSIDKQGAKLLLGPNDAPAGP

What was measured:
[1] = biological target: T1, PRO20040 (human IL-17RH2 receptor); assay: receptor/ligand screen, FIG. 14
From the text: (§1) A PRO polypeptide of the present invention suspected of being a ligand for a receptor is expressed as a fusion protein containing the Fc domain of human IgG (an immunoadhesin). Receptor-ligand binding is detected by allowing interaction of the immunoadhesin polypeptide with cells (e.g. Cos cells) expressing candidate PRO polypeptide receptors and visualization of bound immunoadhesin with fluorescent reagents directed toward the Fc fusion domain and examination by microscope. Cells expressing candidate receptors are produced by transient transfection, in parallel, of defined subsets of a library of cDNA expression vectors encoding PRO polypeptides that may function as receptor molecules. Cells are then incubated for 1 hour in the presence of the PRO polypeptide immunoadhesin being tested for possible receptor binding. The cells are then washed and fixed with paraformaldehyde. The cells are then incubated with fluorescent conjugated antibody directed against the Fc portion of the PRO polypeptide immunoadhesin (e.g. FITC conjugated goat anti-human-Fc antibody). The cells are then washed again and examined by microscope. A positive interaction is judged by the presence of fluorescent labeling of cells transfected with cDNA encoding a particular PRO polypeptide receptor or pool of receptors and an absence of similar fluorescent labeling of similarly prepared cells that have been transfected with other cDNA or pools of cDNA. If a defined pool of cDNA expression vectors is judged to be positive for interaction with a PRO polypeptide immunoadhesin, the individual cDNA species that comprise the pool are tested individually (the pool is “broken down”) to determine the specific cDNA that encodes a receptor able to interact with the PRO polypeptide immunoadhesin.
(§2) In another embodiment of this assay, an epitope-tagged potential ligand PRO polypeptide (e.g., 8 histidine “His” tag) is allowed to interact with a panel of potential receptor PRO polypeptide molecules that have been expressed as fusions with the Fc domain of human IgG (immunoadhesins). Following a 1 hour co-incubation with the epitope tagged PRO polypeptide, the candidate receptors are each immunoprecipitated with protein A beads and the beads are washed. Potential ligand interaction is determined by Western blot analysis of the immunoprecipitated complexes with antibody directed towards the epitope tag.

[2] = biological target: T2, PRO5801 (human IL-17RH1 receptor); assay: Receptor/ligand interaction screening assay (immunoadhesin); format: binding
[3] = biological target: T3, human IL-17 receptor (IL-17R, PRO1) as tested in the receptor/ligand screen (human, UniProt Q96F46 33-320, limits assumed); assay: receptor/ligand screen, FIG. 14
T3 construct: also called IL-7R (as misprinted)
From the text: as §1, §2

| Molecule | binding result [1] | binding to IL-17RH1 receptor (PRO5801) [2] | binding result [3] |
| --- | --- | --- | --- |
| B1 | no binding | do not interact |  |
| B2 | no binding | do not interact | no binding |
